Reference: paper PMC4927390

Biological target: PpsR2-mVenus-CAAX (membrane-bound) (Rhodopseudomonas palustris)
Assay: translocation assay

decrease of mCherry fluorescence in cytoplasm after 3 min of 740 nm illumination: 25%
Substance: BphP1-mCherry, transiently expressed in HeLa cells (natural protein)
